# Source: publication PMC11323955
# Biological target: MBP-MlCYC2A (M. lewisii)
# Experiment: SPR
substance,measurement,value
GST-MlBOP (natural protein),Kd,1.44 µM
GST-bop-1 (GST-tagged MlBOP with the H39L point mutation) (natural protein),Kd,0.968 µM
